Where only a bound is given, the exact number is not on record here.

The target of data set [1] is Cas9 nuclease lobe (Streptococcus pyogenes) (UniProt Q99ZW2). Nature of the data set: filter.
For data set [2], the target named is Cas9 alpha-helical lobe (Streptococcus pyogenes) (UniProt Q99ZW2). The data set can be described thus: filter. The settings on record: 5 mM MgCl2, RT.
The test system of data set [3] is split-Cas9 (alpha-helical lobe + nuclease lobe) (Streptococcus pyogenes). Nature of the data set: cell_activity. The conditions noted are these: HEK293T nucleofected RNP, nocodazole synchronized; 0.6% unsynchronized; WT 34% and 22%.
Data set [4] has as its target dCas9 D10A,H840A (Streptococcus pyogenes) (UniProt Q99ZW2). Nature of the data set: EMSA. The conditions noted are these: 5 mM MgCl2, heparin, RT; PAM NGG.
The test system of data set [5] is split-dCas9 (alpha-helical lobe + dNuclease lobe) D10A,H840A (Streptococcus pyogenes). Nature of the data set: EMSA. The settings on record: apparent; complex dissociation contributes; 5 mM MgCl2, heparin; PAM NGG.

Regarding delta-hairpins1-2 sgRNA, in data set [1] (5 mM MgCl2, RT), the Kd was > 100 nM.
Turning to delta-spacer-nexus sgRNA, in data set [2], the Kd is > 100 nM.
For the substance EMX1 sgRNA ; EMX1 locus target, in data set [3], the activity is < 2 % indels.
On to “full-length sgRNA ; target dsDNA (55 bp, with PAM)”, for which the Kd is 0.2 nM in data set [4] and 700 nM in data set [5].
In turn, full-length sgRNA yielded a Kd in data set [1] (Example 1, p568 gives range 0.2-0.8 nM) of 0.5 nM.

For the origin of these results see patent US11208638.
